Results taken from publication PMC11199686.

Columns and labels:
[1] = target: fibrin clots formed in human plasma (human (endogenous in plasma)) (UniProt P02679); assay: co-sedimentation; panel of 125I-labelled plasma proteins (25,000 cpm each) present while enhanced clots formed in plasma; 16 h, 37°C; clots washed three times in 10 mM HEPES, 70 mM NaCl, 0.5 mM EDTA, 5 M urea pH 7.4
[2] = target: fibrin clots formed in human plasma (human (endogenous in plasma)) (UniProt P02679); assay: co-sedimentation; enhanced clots: as the plasma clots but with extra fibrinogen (2 mg/ml) added; 40 min, 37°C; 70 mM, 140 mM or 1 M salt; washed with reaction buffer (HEPES-1/2-saline at 70 mM)
[3] = target: fibrin clots formed in human plasma (human (endogenous in plasma)) (UniProt P02679); assay: co-sedimentation; clots formed in 45% human plasma with 20 mM CaCl2 in the presence of 125I-ligand (25,000 cpm), 40 min, 37°C, at about 70 mM, 140 mM or 1 M salt; clots spun at 1,000 x g and washed three times in reaction buffer; bound = input minus cpm in supernatants
[4] = target: fibrin made from purified fibrinogen with thrombin (UniProt P02679); assay: co-sedimentation; fibrin-only clots: 3.5 mg/ml purified fibrinogen with 125I-ligand (25,000 cpm) in 10 mM HEPES, 70 mM NaCl, 5 mM CaCl2 pH 7.4, clotted with thrombin (8.75 μg/ml), 40 min, 37°C; washed with HEPES-1/2-saline
[5] = target: fibrin clots formed in human plasma (human (endogenous in plasma)) (UniProt P02679); assay: co-sedimentation; time course: enhanced clots formed in plasma with 125I-ligand (25,000 cpm), eight times from 0 to 960 min at 37°C; washed three times with 10 mM HEPES, 70 mM NaCl, 0.5 mM EDTA, 5 M urea pH 7.4; what stays is judged covalently bound
[6] = target: fibrin made from purified fibrinogen with thrombin (UniProt P02679); assay: radioligand binding; 125I-ligand (100,000 cpm) on fibrin-coated wells in veronal buffer ([…] sodium barbital, […] CaCl2, 0.5 mM MgCl2, pH 7.4) with 20, 75 or 150 mM NaCl; 30 min, 37°C; washes at the same NaCl
[7] = target: fibrin made from purified fibrinogen with thrombin (UniProt P02679); assay: radioligand binding; serial dilutions of 125I-ligand from 500,000 cpm/well on fibrinogen-, fibrin- or BSA-coated Maxisorp wells; 30 min, 37°C; 25 mM HEPES-0.1% Tween 20 pH 7.4 (20 mM in the legend), without or with 5 mg/ml fluid-phase BSA; bound label eluted with 0.1 M NaOH; Scatchard plot
[8] = target: fibrin clots formed in human plasma (human (endogenous in plasma)) (UniProt P02679); assay: co-sedimentation; time course: enhanced clots formed in plasma with 125I-ligand (25,000 cpm), eight times from 0 to 960 min at 37°C; washed with HEPES-1/2-saline (non-denaturing)
[9] = target: fibrin clots formed in human plasma (human (endogenous in plasma)) (UniProt P02679); assay: cross-linking; 125I-ligand (25,000 cpm) with 0.9% plasma and 20 μg fibrinogen in 50 μl HEPES-1/2-saline, 20 mM CaCl2, 16 h, 37°C; cross-linking by the FXIIIa of the plasma; washed clots on reducing SDS-PAGE (4-12%), autoradiography
[10] = target: fibrin made from purified fibrinogen with thrombin (UniProt P02679); assay: radioligand binding; saturation: fixed 125I-factor H (250,000 cpm, 80 ng/well) mixed with unlabeled factor H (0-5,120 ng/well) on fibrin-coated wells; 30 min, 37°C
[11] = target: fibrin clots formed in human plasma (human (endogenous in plasma)) (UniProt P02679); assay: ELISA; levels of endogenous factor H (captured on monoclonal MRCOX23) and C1q (captured on ovalbumin antigen-antibody complexes) in citrated plasma and in the serum from the same plasma; the loss on clotting is taken as binding to clots
[12] = target: fibrin made from purified fibrinogen with thrombin (UniProt P02679); assay: radioligand binding; inhibition: 125I-factor H (2 μg/well) premixed on ice with unlabeled factor H (0-30 μg/well) or ovalbumin, on fibrin-coated wells; 30 min, 37°C

Sequence of factor H (P08603 19-1231): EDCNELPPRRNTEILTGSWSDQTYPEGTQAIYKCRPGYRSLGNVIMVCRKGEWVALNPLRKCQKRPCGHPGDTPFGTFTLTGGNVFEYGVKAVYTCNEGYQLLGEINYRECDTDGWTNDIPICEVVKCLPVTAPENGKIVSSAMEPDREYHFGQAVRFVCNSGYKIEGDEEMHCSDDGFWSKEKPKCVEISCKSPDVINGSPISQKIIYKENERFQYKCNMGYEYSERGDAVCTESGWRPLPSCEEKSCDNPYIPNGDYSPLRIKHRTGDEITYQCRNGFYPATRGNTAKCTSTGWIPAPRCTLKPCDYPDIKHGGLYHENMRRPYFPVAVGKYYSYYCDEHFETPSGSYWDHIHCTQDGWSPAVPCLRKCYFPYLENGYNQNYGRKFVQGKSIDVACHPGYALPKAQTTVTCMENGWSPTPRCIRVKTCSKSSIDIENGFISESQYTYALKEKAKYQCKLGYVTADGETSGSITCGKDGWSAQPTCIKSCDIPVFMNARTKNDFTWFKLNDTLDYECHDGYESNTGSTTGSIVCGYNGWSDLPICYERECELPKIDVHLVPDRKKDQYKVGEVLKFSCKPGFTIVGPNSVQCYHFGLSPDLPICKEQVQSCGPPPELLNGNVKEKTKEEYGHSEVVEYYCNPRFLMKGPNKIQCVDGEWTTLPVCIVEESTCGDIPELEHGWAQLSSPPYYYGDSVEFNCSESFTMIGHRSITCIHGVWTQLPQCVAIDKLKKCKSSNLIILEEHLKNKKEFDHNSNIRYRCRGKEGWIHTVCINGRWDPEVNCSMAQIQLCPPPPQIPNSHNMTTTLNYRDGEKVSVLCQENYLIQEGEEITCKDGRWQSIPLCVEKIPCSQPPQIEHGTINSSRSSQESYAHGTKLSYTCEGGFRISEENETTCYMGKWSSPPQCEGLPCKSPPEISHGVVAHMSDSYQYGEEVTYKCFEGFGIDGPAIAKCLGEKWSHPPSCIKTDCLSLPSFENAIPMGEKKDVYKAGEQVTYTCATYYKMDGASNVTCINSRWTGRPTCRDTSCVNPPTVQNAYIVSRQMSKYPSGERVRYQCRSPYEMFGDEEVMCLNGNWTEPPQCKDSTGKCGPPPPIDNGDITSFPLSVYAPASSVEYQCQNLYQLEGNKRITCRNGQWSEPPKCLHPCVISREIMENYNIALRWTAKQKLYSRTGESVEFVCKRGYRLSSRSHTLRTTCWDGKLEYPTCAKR
Sequence of UniProt P02679 (P02679 whole entry, looked up): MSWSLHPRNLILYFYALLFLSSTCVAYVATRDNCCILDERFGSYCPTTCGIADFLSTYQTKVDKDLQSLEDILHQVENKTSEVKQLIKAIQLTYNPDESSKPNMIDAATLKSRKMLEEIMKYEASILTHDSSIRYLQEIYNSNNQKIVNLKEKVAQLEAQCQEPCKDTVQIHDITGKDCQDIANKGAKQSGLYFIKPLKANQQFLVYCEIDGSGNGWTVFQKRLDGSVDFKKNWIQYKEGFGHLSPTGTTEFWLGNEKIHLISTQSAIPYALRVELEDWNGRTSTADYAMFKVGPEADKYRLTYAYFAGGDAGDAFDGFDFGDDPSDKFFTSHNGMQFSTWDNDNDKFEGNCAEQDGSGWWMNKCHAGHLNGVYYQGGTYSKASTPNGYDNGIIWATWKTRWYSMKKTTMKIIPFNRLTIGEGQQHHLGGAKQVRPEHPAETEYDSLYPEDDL

| Substance | Protein incorporated into fibrin clots (%) [1] | percent bound to fibrin clots [1] | fold increase of percent bound, enhanced clots over plasma clots without added fibrinogen, at 140 mM NaCl [2] | percent bound to enhanced plasma clots (HEPES-1/2-saline wash) [2] | percent bound to plasma clots at 70 mM salt [3] | percent bound to fibrin-only clots (HEPES-1/2-saline wash) [4] | percent bound at 30 min, after urea wash [5] | percent bound at 96 min, after urea wash [5] | percent bound at 960 min, after urea wash [5] | binding at 75 mM NaCl relative to that at 20 mM NaCl [6] | Kd [7] | percent of input bound (500,000 cpm/well) [7] | percent bound at 30 min, non-denaturing wash [8] | percent bound at 96 min, non-denaturing wash [8] | percent of 125I-factor H in the large cross-linked aggregate that did not enter the gel [9] | percent of input bound at saturation (input 3.5 μg/well) [10] | percent of the plasma level lost in the serum of the same plasma (healthy volunteer sample) [11] | percent inhibition of the binding of 125I-factor H at an equal molar ratio of unlabeled to labeled factor H [12] |
| --- | --- | --- | --- | --- | --- | --- | --- | --- | --- | --- | --- | --- | --- | --- | --- | --- | --- | --- |
| plasminogen (natural protein) | 32.8% | 31% |  |  |  |  |  |  |  |  |  |  |  |  |  |  |  |  |
| factor H (from UniProt P08603 19-1231) (natural protein) | 28.7% | 30% | 6 fold | 21.5% | 21.5% | 19% | 13% | 18% | 32.5% | < 50% | 0.055 nM | 1.7% | 22% | 26% | 5.2% | 0.1% | 38% | 48% |
